Substrate: O=C1OC2(c3ccc(O[C@@H]4O[C@H](CO)[C@H](O)[C@H](O)[C@H]4O)cc3Oc3cc(O[C@@H]4O[C@H](CO)[C@H](O)[C@H](O)[C@H]4O)ccc32)c2ccccc21
Assay: purified protein
Format: biochemical, Saccharolobus solfataricus
Details: no indole, pH 6.5, 37 °C, 50 mM sodium phosphate, 5% DMSO

B1: β-glycosidase (β-gly) (Saccharolobus solfataricus P2; W33G) (protein)
chain: MYSFPNSFRFGWSQAGFQSEMGTPGSEDPNTDGYKWVHDPENMAAGLVSGDLPENGPGYWGNYKTFHDNAQKMGLKIARLNVEWSRIFPNPLPRPQNFDESKQDVTEVEINENELKRLDEYANKDALNHYREIFKDLKSRGLYFILNMYHWPLPLWLHDPIRVRRGDFTGPSGWLSTRTVYEFARFSAYIAWKFDDLVDEYSTMNEPNVVGGLGYVGVKSGFPPGYLSFELSRRAMYNIIQAHARAYDGIKSVSKKPVGIIYANSSFQPLTDKDMEAVEMAENDNRWWFFDAIIRGEITRGNEKIVRDDLKGRLDWIGVNYYTRTVVKRTEKGYVSLGGYGHGCERNSVSLAGLPTSDFGWEFFPEGLYDVLTKYWNRYHLYMYVTENGIADDADYQRPYYLVSHVYQVHRAINSGADVRGYLHWSLADNYEWASGFSMRFGLLKVDYNTKRLYWRPSALVYREIATNGAITDEIEHLNSVPPVKPLRH
  Km: 1080 ± 30 µM
  kcat: 0.00675 ± 0.00004 s⁻¹

B2: β-glycosidase (β-gly) (Saccharolobus solfataricus P2) (protein)
chain: MYSFPNSFRFGWSQAGFQSEMGTPGSEDPNTDWYKWVHDPENMAAGLVSGDLPENGPGYWGNYKTFHDNAQKMGLKIARLNVEWSRIFPNPLPRPQNFDESKQDVTEVEINENELKRLDEYANKDALNHYREIFKDLKSRGLYFILNMYHWPLPLWLHDPIRVRRGDFTGPSGWLSTRTVYEFARFSAYIAWKFDDLVDEYSTMNEPNVVGGLGYVGVKSGFPPGYLSFELSRRAMYNIIQAHARAYDGIKSVSKKPVGIIYANSSFQPLTDKDMEAVEMAENDNRWWFFDAIIRGEITRGNEKIVRDDLKGRLDWIGVNYYTRTVVKRTEKGYVSLGGYGHGCERNSVSLAGLPTSDFGWEFFPEGLYDVLTKYWNRYHLYMYVTENGIADDADYQRPYYLVSHVYQVHRAINSGADVRGYLHWSLADNYEWASGFSMRFGLLKVDYNTKRLYWRPSALVYREIATNGAITDEIEHLNSVPPVKPLRH
  Km: 58 ± 4 µM
  kcat: 0.265 ± 0.002 s⁻¹

— article PMC3381609
